Assay type in all cases: biochemical
The test system of assay [1] is protein kinase C. The assay can be described thus: Detection of small amounts of protein kinase C, agarose gel. To be noted: 30 minutes at room temperature, UV light. The method, then:
Fifteen microliters of Promega Peptide 5 (SEQ ID NO:5) were incubated in protein kinase C reaction buffer (20 mM HEPES (pH 7.4), 1.3 mM CaCl2, 1 mM DTT, 10 mM MgCl2, 200 μg/mL phosphatidyl serine, 15 mM ATP), and 1 μg Protein Kinase C for 2 hours at room temperature in a final volume of 40 μl. The reaction was stopped by heating the reaction solution to 95° C. for ten minutes.
Five microliters of Promega Peptide 5 (SEQ ID NO:5) and 6 (SEQ ID NO:6) or 2.5 μl of Promega Peptide 4 (SEQ ID NO:4) were incubated with a solution containing 18 μl protein kinase C reaction buffer (described in Example 13) and decreasing amounts of protein kinase C, containing between 60 ng and 60 picograms (pg), for 30 minutes at room temperature. Reactions were stopped by heating the reaction mixtures to 95° C. for 10 minutes.
Referring to FIG. 11, the detection of phosphorylated peptide was observed under UV light, and detection limits noted. Six hundred picograms of protein kinase C could be detected by Promega Peptide 4 (SEQ ID NO:4), 3ng by Promega Protein 5 (SEQ ID NO:5), and 3 ng by Promega Protein 6 (SEQ ID NO:6).

Assay [2] has as its system Brevibacterium albidum culture supernate. The assay can be described thus: Assays of proteases in crude media samples. The following applies: 90 minutes at 37° C. As to the method: (§1) Samples of culture supernate from stationary phase cultures of Thermus aquaticus (T. aquaticus) and Brevibacterium albidum (B. albidum) were made by centrifugation of a stationary phase culture at 12,000×g for 2 minutes and transfer of the supernate to fresh tubes. Diluted stocks of Promega Peptides 3 (SEQ ID NO:3), 5 (SEQ ID NO:5) and 6 (SEQ ID NO:6) were made by dilution of the original stocks of these peptides with an equal volume of 50 mM ammonium bicarbonate, pH 7.8. In three independent tubes per peptide, 10 μL of these diluted stocks were incubated with either 10 μL water, 10 μL Thermus supernate, or 10 μL Brevibacterium supernate. The incubations were performed for 90 minutes at 37° C. The samples were then loaded in a 0.9% agarose gel made with 20 mM Tris-Cl pH 8.0. The gel was then electrophoresed at 120 V for 30 minutes, and was photographed under UV light on a transilluminator as described above.
(§2) Reference is made to FIG. 15, which is a photograph of the agarose gel used to analyze the peptide species produced in the digestion of Promega Peptides 3 (SEQ ID NO:3), 5 (SEQ ID NO:5), and 6 (SEQ ID NO:6) by supernates of cultures of T. aquaticus and B, albidum. The gel was photographed under UV light as described in Example 1 and the gel is oriented such that the end of the gel which was oriented towards the negative electrode is towards the top of the photograph.

The test system of assay [3] is Thermus aquaticus culture supernate. The assay can be described thus: Assays of proteases in crude media samples. To be noted: 90 minutes at 37° C. As to the method:
as §1, §2

In assay [4] the target is T1, Endoprotease Lys C (Lysobacter enzymogenes, UniProt Q7M135).
T1 construct: purchased Promega Corp., Madison, Wis
T1 sequence (Q7M135 whole entry): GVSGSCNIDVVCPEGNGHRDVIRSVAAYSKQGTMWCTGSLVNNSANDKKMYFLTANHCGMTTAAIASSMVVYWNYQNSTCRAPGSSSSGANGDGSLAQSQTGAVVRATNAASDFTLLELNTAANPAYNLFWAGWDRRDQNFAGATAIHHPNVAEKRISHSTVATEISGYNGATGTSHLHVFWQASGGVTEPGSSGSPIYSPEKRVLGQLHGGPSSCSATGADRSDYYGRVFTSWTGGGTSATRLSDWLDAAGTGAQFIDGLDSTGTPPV
The assay can be described thus: Assay of pure proteases using modified peptides, agarose gel. To be noted: 90 minutes at 37° C., 0.1 to 0.001 μg protease. The method, then: The proteases Modified Trypsin [sequencing grade] (Promega Corp., Madison, Wis.) and Endoprotease Lys C [sequencing grade] were dissolved in A buffer (50 mM ammonium bicarbonate, pH 7.8). These stocks were diluted with A buffer to produce stocks containing […] protease per 4 μl of liquid. Independent incubations of 4 μl of each of the different protease concentrations were performed with Promega Peptides 5 (SEQ ID NO:5), 6 (SEQ ID NO:6), 7 (SEQ ID NO:7) (5 μl of the stocks described above) in a 20 μl reaction mixture containing: 5 μl peptide; 4 μl protease; and 11 μl A buffer.
After 90 minutes at 37° C., the samples were loaded into a 0.8% agarose gel made in 20 mM Tris, pH 8.0. The samples were electrophoresed at 150 V. When the control peptide sample had migrated about 0.5 inch from the loading well, the gels were photographed on a transilluminator as described above.
Reference is made to FIG. 13, which is a photograph of the agarose gel used to analyze the peptide species produced in the digestion of Promega Peptide 6 (SEQ ID NO:6) by modified trypsin and Endoprotease Lys C. The gel was photographed under UV light as described in Example 1 and the gel is oriented such that the end of the gel which was oriented towards the negative electrode is towards the top of the photograph. The lanes are numbered from left to right. […]

Assay [5] deals with catalytic subunit of the cAMP-dependent protein kinase (Homo sapiens, UniProt P17612). The assay can be described thus: Quantitation of cAMP-dependent protein kinase activity using microtiter plate reader. To be noted: for A570: phosphorylated peptide band. The method, then: Eight microliters of Promega Peptide 7 (SEQ ID NO:7) was phosphorylated by the catalytic subunit of the cAMP-dependent protein kinase. The amount of kinase used in the assay varied from 4.5 μg to 0.9 ng, diluted from a stock solution of 2.25 mg/ml. The reactions took place in a volume of 24 μl for 30 minutes at room temperature, and were stopped by heating the solutions at 95° C. for five minutes.
After heating, glycerol was added to the solutions to a final concentration of 4%. The solutions were then loaded on a 0.8% agarose gel, which was run at 100 V until the phosphorylated and non-phosphorylated bands had separated and migrated from the wells.
The agarose containing the phosphorylated peptide was excised from the gel with a razor blade and placed into Eppendorph tubes. The agarose was melted, and 145 μl agarose solution were diluted in urea and acetic acid to a final concentration of 2M and 1M, respectively, in a final volume of 250 μl.
The solutions were placed in the wells of a microtiter plate and allowed to cool. After the agarose re-solidified, the absorbance of the wells at 570 nanometers (nm) was read.

The target of assay [6] is catalytic subunit of cAMP-dependent protein kinase (Homo sapiens, UniProt P17612). The assay can be described thus: Quantitation of cAMP-dependent protein kinase activity using a spectrophotometer. The following applies: for A570: phosphorylated peptide band. As to the method: Three microliters of Promega Peptide 7 (SEQ ID NO:7) were phosphorylated by varying amounts of cAMP-dependent protein kinase. The reactions took place in a volume of 20 μl in a solution containing 3 mM ATP, 20 mM HEPES buffer (pH 7.4), and between 50 ng and 1 μg catalytic subunit of cAMP-dependent protein kinase. The mixture was incubated for 30 minutes at room temperature, and the reactions were stopped by heating the mixture at 95° C. for five minutes.
At this time, the phosphorylated and non-phosphorylated species had separated and could be detected by ultraviolet light. The phosphorylated peptide was then excised from the gel with a razor blade, and the agarose was melted by heating at 95° C. for 2 minutes. Two hundred microliters of the melted agarose were then diluted to 400 μl in a solution containing 2M urea and 1M acetic acid. The absorbance of the solution at 570 nm was then determined in a Milton-Roy Spectronic 1201 spectrophotometer.

The target of assay [7] is cAMP-dependent protein kinase (Homo sapiens, UniProt P17612). The assay can be described thus: Radioactive kinase assay of peptide substrates (32P incorporation, P81 filter). As to the method: Radioactive kinase assays were carried out as described in Walton et al., as modified and described here. Five μl Promega Peptide 1 (SEQ ID NO:1) were added to a reaction mixture containing 20mM Tris HCl (pH 7.4), 10 mM MgCl2, 4 micrograms (μg) of cAMP-dependent protein kinase (both catalytic and regulatory subunits), in the presence or absence of 2 micromolar (μM) cAMP, in a volume of 50 μl.
The reaction began with the addition of 10 μl of solution containing 0.15 mM [γ32 P] ATP (about 0.05 Ci/mmol) and 10 mM MgCl2. After a two minute incubation, the reaction was terminated by the addition of 30 μl of H3 PO4 to a final concentration of 0.5%. To measure incorporation of radiolabelled phosphate into the peptide substrate, half the reaction mixture was spotted onto a Whatmann P81 filter. The filters were washed four times in a solution containing 0.5% H3 PO4. Each wash lasted at least five minutes. After washing, the radioactivity present on the filters was measured in a scintillation counter.

Where [8] appears, read: 8 μl peptide, 30 minutes at room temperature.

This note sets out measurements from patent publication US5580747A, “Non-radioactive enzyme assay” (Promega Corporation, priority 1994, dated 1996).

No end group written: not given here.

Regarding “Promega Peptide 4: Lissamine Rhodamine-tagged peptide *-R-F-A-R-K-G-S-L-R-Q-K-N-V (SEQ ID NO:4) ({Lissamine Rhodamine}-RFARKGSLRQKNV)”, the “amount of protein kinase C that could be detected” value in assay [1] is reported as “Six hundred”.

For the substance “Promega Peptide 5: Lissamine Rhodamine-tagged peptide *-Q-R-R-Q-R-K-S-R-R-T-I (SEQ ID NO:5) ({Lissamine Rhodamine}-QRRQRKSRRTI)”, the “amount of protein kinase C that could be detected” value in assay [1] is reported as 3 ng. In addition, the “proteolysis by B. albidum supernate” value in assay [2] was “proteolysis of the peptide had taken place”. Moreover, the “proteolysis by T. aquaticus supernate” value in assay [3] is given as “proteolysis of the peptide had taken place”.

As for “Promega Peptide 7: Lissamine Rhodamine-tagged Kemptide *-L-R-R-A-S-L-G (SEQ ID NO:7) ({Lissamine Rhodamine}-LRRASLG)”, the “digestion by Endoprotease Lys C” value in assay [4] is reported as “did not show any digestion”. In addition, the “kinase amount below which it could not be detected” value in assay [5] (setting [8]) came to 0.009 µg. Besides, the “kinase amount that saturated the system” value in assay [5] (setting [8]) is given as “more than 0.9 μg”. The “A570 -Blank” value in assay [5] (Kinase 0.0009 μg (1:10,000)) came out at 0.009; in assay [5] (Kinase 0.009 μg (1:1,000)) it was 0.010; in assay [5] (Kinase 0.09 μg (1:100)) it was 0.022; in assay [5] (Kinase 0.9 μg (1:10)) it was 0.107; in assay [5] (Kinase 4.5 μg (1:2)), 0.106; in assay [6] (Kinase 0.05 μg (1:200)), 0.009. The “A570 -Blank” value in assay [6] (Kinase 0.10 μg (1:100)) amounted to 0.021; in assay [6] (Kinase 0.20 μg (1:50)), 0.029; in assay [6] (Kinase 0.50 μg (1:20)), 0.130; in assay [6] (Kinase 1.0 μg (1:10)), 0.163. Also, the A570 is 0.106 +/- 0.013 in assay [5] (Kinase 0.0009 μg (1:10,000)); 0.107 +/- 0.003 in assay [5] (Kinase 0.009 μg (1:1,000)); 0.119 +/- 0.002 in assay [5] (Kinase 0.09 μg (1:100)); 0.204 +/- 0.003 in assay [5] (Kinase 0.9 μg (1:10)); 0.203 +/- 0.005 in assay [5] (Kinase 4.5 μg (1:2)); 0.024 in assay [6] (Kinase 0.05 μg (1:200)). Besides, the A570 in assay [6] (Kinase 0.10 μg (1:100)) is listed as 0.036; in assay [6] (Kinase 0.20 μg (1:50)), 0.044; in assay [6] (Kinase 0.50 μg (1:20)), 0.145; in assay [6] (Kinase 1.0 μg (1:10)) it was 0.178. Further, in assay [5] (range of 0.009 to 0.9 μg kinase added), the “correlation coefficient between kinase concentration and absorbance” value is on record as 0.999.

In the case of LRRASLG [Kemptide], in assay [7] (2 μM cAMP, 4 μg cAMP-dependent protein kinase, [γ32P]ATP, two minute incubation), the “CPM (+cAMP)” value is listed as 471,840 CPM. The Stimulation in assay [7] (CPM +cAMP relative to no cAMP) is given as 82. For the same substance, the “CPM (no cAMP)” value in assay [7] (no cAMP, 4 μg cAMP-dependent protein kinase, [γ32P]ATP, two minute incubation) is given as 5760 CPM.

On to “Sulforhodamine 101 Derivative of V^6 A^5 Kemptide ({sulforhodamine 101}-LRRASVA) [Promega Peptide 3]”, for which the “proteolysis by B. albidum supernate” value in assay [2] is “novel peptide species made in small amount”. Further, the “proteolysis by T. aquaticus supernate” value in assay [3] is reported as “proteolytic cleavage of the peptide had occurred”.
